# Columns and labels:
# Assay in all cases: ELISA
# [1] = target: T1, Angola strain MARV GP ectodomain containing the mucin-like domain (Marburg virus, Angola strain, UniProt Q1PD50 19-648)
# T1 chain: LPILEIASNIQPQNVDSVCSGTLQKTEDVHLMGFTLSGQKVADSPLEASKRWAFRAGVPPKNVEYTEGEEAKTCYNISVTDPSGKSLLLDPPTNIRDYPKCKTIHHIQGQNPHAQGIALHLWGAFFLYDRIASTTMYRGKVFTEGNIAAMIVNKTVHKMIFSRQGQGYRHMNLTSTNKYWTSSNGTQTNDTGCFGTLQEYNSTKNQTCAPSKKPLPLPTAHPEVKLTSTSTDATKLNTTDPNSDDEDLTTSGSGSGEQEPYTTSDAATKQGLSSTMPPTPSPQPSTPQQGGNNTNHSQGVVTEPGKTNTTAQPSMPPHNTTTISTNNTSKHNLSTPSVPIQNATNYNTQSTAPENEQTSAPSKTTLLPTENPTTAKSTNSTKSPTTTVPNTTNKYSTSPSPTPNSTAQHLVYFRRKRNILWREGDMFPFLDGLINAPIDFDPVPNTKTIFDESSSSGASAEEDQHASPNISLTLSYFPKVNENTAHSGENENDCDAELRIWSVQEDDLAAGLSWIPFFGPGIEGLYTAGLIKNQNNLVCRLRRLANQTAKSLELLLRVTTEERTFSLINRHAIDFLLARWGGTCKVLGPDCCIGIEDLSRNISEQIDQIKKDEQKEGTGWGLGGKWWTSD
# [2] = target: T2, EBOV Mayinga strain GP ectodomain containing the glycan cap and mucin-like domain (Ebola virus, Mayinga strain, UniProt Q05320 33-650)
# T2 chain: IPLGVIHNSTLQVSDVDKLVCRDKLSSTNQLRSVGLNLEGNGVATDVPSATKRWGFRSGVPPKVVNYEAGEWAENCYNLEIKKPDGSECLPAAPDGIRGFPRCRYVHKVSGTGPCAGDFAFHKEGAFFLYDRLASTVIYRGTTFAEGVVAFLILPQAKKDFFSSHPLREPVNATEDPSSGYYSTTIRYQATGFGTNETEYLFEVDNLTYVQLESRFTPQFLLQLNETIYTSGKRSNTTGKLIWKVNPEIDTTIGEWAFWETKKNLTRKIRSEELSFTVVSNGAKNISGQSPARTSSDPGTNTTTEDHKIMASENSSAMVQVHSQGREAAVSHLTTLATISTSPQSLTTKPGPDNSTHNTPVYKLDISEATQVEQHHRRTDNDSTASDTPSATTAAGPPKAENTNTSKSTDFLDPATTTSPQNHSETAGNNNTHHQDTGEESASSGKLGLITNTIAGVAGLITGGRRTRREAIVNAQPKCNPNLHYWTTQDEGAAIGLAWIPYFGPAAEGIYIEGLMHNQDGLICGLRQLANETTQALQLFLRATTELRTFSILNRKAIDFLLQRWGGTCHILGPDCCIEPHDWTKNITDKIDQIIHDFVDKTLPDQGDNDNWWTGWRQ
# [3] = target: T3, EBOV Mayinga strain cleaved GP ectodomain (Ebola virus, Mayinga strain, UniProt Q05320 33-650)
# T3 chain: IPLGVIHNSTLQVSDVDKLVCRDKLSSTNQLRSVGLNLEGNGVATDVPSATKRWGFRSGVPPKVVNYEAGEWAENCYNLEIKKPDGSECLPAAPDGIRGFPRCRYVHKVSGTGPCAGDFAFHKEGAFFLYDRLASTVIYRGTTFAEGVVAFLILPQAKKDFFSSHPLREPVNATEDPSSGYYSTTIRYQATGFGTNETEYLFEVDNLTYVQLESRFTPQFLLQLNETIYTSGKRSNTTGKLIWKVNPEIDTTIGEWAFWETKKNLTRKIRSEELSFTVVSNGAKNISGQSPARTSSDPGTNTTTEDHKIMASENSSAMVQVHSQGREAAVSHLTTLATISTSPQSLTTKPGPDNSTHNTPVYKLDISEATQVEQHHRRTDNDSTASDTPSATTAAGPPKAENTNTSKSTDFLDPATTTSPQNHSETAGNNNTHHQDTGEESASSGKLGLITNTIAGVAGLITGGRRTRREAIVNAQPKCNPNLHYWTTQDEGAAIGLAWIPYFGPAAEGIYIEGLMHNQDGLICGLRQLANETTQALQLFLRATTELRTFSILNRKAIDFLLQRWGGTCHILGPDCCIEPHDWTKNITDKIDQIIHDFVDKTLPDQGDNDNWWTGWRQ
# [4] = target: T4, Ravn strain cleaved MARV GP ectodomain (Marburg virus, Ravn strain, UniProt Q1PDC7 19-648)
# T4 chain: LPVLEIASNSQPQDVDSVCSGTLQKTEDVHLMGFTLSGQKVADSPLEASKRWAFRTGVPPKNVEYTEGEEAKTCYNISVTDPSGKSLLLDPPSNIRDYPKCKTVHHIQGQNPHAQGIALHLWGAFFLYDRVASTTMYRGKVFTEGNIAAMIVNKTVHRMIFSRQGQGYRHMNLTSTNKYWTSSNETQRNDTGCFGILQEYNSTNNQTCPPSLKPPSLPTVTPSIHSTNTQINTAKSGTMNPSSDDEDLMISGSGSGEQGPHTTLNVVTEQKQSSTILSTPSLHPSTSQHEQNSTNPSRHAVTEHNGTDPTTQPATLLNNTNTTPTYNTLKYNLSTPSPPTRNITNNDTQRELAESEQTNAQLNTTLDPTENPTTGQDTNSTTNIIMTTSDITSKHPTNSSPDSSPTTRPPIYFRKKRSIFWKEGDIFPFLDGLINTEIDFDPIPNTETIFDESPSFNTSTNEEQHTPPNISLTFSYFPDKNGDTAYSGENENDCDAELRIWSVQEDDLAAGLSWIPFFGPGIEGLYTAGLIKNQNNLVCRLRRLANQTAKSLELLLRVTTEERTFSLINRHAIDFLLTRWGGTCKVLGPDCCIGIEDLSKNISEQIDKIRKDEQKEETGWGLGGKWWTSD
# [5] = target: EBOV Mayinga strain GP ectodomain lacking residues 314-462 of the mucin-like domain (Ebola virus, Mayinga strain, UniProt Q05320 33-650)
# [6] = target: Angola strain MARV GP ectodomain lacking residues 257-425 of the mucin-like domain (Marburg virus, Angola strain, UniProt Q1PD50 19-648)
Binder,EC50 [1] [µg/mL],EC50 [2] [µg/mL],EC50 [3] [µg/mL],EC50 [4] [µg/mL],EC50 [5] [µg/mL],EC50 [6] [µg/mL]
MR209 (antibody) chain 1: QLQLQESGPGLVKPSETLSLTCTVAGGPITSNNYYWGWIRQSPGKGLEWIGSVYYSGNTYYNPSIKTRVTMSVDTSKSQFSLKLNSVTAADTAVYYCARQFRLLQFVEWLHHFDSWGPGN chain 2: SYVLTQPPSVSVAPGQTARIPCGGNDIANKRVHWYQQKPGQAPMLVVYDDGDRPSGIPERFSGSNSGNTATLTISRVEAGDEADYYCQVWENSSDLCVVFGGGTKLTVL,4,> 1000,> 1000,2,> 1000,5.4
"MR111 human monoclonal antibody (antibody, V domains shown) V domain 1: QVQLQESGPGLVKPSETLSLTCTVSGDSINNYYWSWIRQPPGKGLEWIGYIYYSNTNYNPSLKSRVTISVDTSKNQFSLRLSSVTAADTAVYYCARSPLFWFGEFFSSPDHFDFWGQGTL V domain 2: QSALTQPASVSGSPGQSITISCTGTSSDVGSYDLVSWYQQHPGKAPKLMLYEGTKRPSGVSNRFSGSKSGNTASLTISGLQAEDEADYYCCSYAGGSTLVFGGGTQVTVL",2.5,> 1000,21.5,1.5,> 1000,4.3
"MR144 (antibody, V domains shown) V domain 1: QVQLQESGPGLVKPSETLSLTCTVSGDSISRYYWSWIRQPPGKGLEWIGYLYYSGSTDYNPSLKSRVTISVDTSKNQFSLNLTSVTAADTAVYYCARGSSRGIGVVSHWFDPWGQGT V domain 2: SYVLTQPPSVSVAPGQTARITCGGSNMGYKSVQWYQQRPGQAPVLVVYDDTDRPSGIPERFSGSNSGATATLTISSVEAGDEADYYCQVWDSSSDHHVVFGGGTQVTVL",8.1,> 1000,> 1000,3.3,> 1000,8
"MR65 (antibody, V domains shown) VH: EVQLLESGGGLVQPGGSLRLSCAASGFTFSSYAMSWVRQAPGQGLEWVSGISATGGNTYYPDSVKGRFTISRDNSKNTLYLQMNSLRAEDTAVYYCARPLQFLTWFDPWGQGTLVTVSS VL: EIVLTQSPATLSLSPGERATLSCRASQSVNNFLAWYQQKPGQPPRLLIYDATNRATGIPARFSGSGSGTDFTLTISSLEPEDFAVYHCQHRSNWPSITFGQGTRLEIK",8.3,> 1000,> 1000,5,> 1000,7.5
"MR191 human monoclonal antibody (antibody, V domains shown) VH: QLQLQESGPGLVKPSETLSLSCTVSGVSISDNSYYWGWIRQPPGKGLEWIGTISYSGNTYYNPSLKSRVSISGDTSKHQLSLKVSSVTAADTAVYYCARQRIVSGFVEWLSKFDYWGQGTLVTVSS VL: QSVLTQPPSVSGAPGQRVTISCTGSSSNIGAGFDVHWYQQLPGTAPKLLIYDNNNRPSGVPDRFSGSKSGTSASLAITGLQAEDEADYYCQSYDTSLSGPVVFGGGTKLTVL",2.5,> 1000,< 0.1,1.4,> 1000,5.1
"MR72 human monoclonal antibody (antibody, V domains shown) VH: QLQLQESGPGLVKPSETLSLTCTVSGDSINNTNYYWAWIRQPPGKGLEYIGSIYYSGSTYYNPSLKSRVTMSVDASKNQFSLRLSSVTAADTAVYYCATHPTLGAFVLLWFGANFDHWGQGTLVTVSS VL: QAVVTQPPSVSGAPGQRVTISCTGSSSNIGANYDVHWYQQLPGTAPKLLMYSNTNRPSGVPDRFSGSKSGTSASLAITGLQAEDEADYYCQSYDNSLNSWVFGGGTQLTVL",3,6.1,< 0.1,0.8,2.1,4.7
MR229 (antibody) chain 1: EVQLVESGGGLVKPGGSLRISCVTSGFTFGDYAMSWFRQAPGKGLEWVGFIRNKGYGGTIDYAASVKGRFTISRDDSKSIAYLQMNSLKTEDTAVYYCTGVRLHYDFWSGYDDDSFHIWGQGTM chain 2: DGVMTQSPLSLPVTPGQPASISCRSTQSLVHGDGDTYLYWFQQRPGQSPRRLIYKVSNRDSGVPDRFSGSGSGTDFTLKISRVEAEDVGVYYCMQSTHWPPTFGQ,1.8,> 1000,> 1000,1.2,> 1000,2.9
"MR82 (antibody, V domains shown) VH: QVQLVQSGAEVKKPGASVKVSCKASGHTFTTYAIHWVRQAPGQGLEWMGWINPDNDNTEYSQKFQGRVTITRDTSASTAYMELSSLISEDTAVFYCASASYTFWSGYYSGLDYWGQGTLVTVSS VL: not shown",1,> 1000,> 1000,0.5,> 1000,1.5
"MR208 (antibody, V domains shown) VH: QVQLQESGPGLVKPSETLSLTCSVSGDSVSSGDYYWSWLRQPPGKGLEWIGYIYYSGATNYNPSLKSRVTISLDTSKNQFSLKLTSVTAADTAVYYCARERAGFLEWLFFEDWGQGT VL: DIQMTQSPSSLSASVGDRVTIFCRASQSIGTYLSWYQQKPGKAPKVLIYATSNLQSGVPSRFSGSGSGTEFTLTISSLQPEDFATYYCQQSRTFGQGTKVDMK",5.6,> 1000,> 1000,2.8,> 1000,7.3
"MR241 (antibody, V domains shown) VH: QVQLQESGPGLVKPSETLSLTCTVSGASISGNFWSWIRQPPGKGLEYIGYMSDIGTTNYSPSLKSRVTISVDTSKNQFSLNLTSVTAADAAVYYCARLVAVPGFFYHYYMDVWGEGTLVTVSS VL: DIVMTQSPSSVSASVGDRVTITCRASQGISGWLAWYQQKPGKAPKLLIYATSTLQSGVPSRFSGSESGTAFTLTISSLQPEDFATYYCQQANSFPLTFGGGTKVEIK",2.2,> 1000,> 1000,1.2,> 1000,4
"MR232 (antibody, V domains shown) VH: QLQLQESGPGLVKPSETLSLTCAVSGGSISSSGYCWGWIRQPPGKGLEWIASICSSGTTYFNSSLKSRVSISIDTSRPQFLLNLRSLTAADTAVYYCARQRMELHFLEWLFPFDSWGQGTLVTVSS VL: DIVMTQSPATLSVSPGERATLSCRASQSVSSNLAWYQQKPGQAPRLLISGASTRATGIPARFSGSGSGTEFTLTISSLQSEDFAVYYCQQYINWPCSFGQGTKVDIK",2,> 1000,> 1000,0.5,> 1000,1.3

# Reference: patent US20210324051A1 (published 2021)
